Broadly, the Kd is the constant that tells how readily two partners part at equilibrium. Low readings indicate a tighter complex, high ones a looser complex.

The target of test [1] is e6ap peptide. Description: ITC. (In ITC the heat of successive injections is recorded.)
Test [2] has as its target E6 F47R 4C4S, a soluble mutant of HPV16 E6 (HPV16). Description: ITC.

In turn, “E6 F47R 4C4S, a soluble mutant of HPV16 E6 (natural protein)” had a Kd in test [1] of over 10 µM.

“LxxLL peptide (E6-binding LxxLL motif of E6AP)” registered a Kd in test [2] of 42 µM.

The values above are taken from article PMC4512291.
